Patent US20250171542A1 (ADEPT THERAPEUTICS, published 2025)
Values belong to the binder of their own block, whether it stands above or below them.

Assays:
[1] = target: T1, human PD-L1-mFc fusion protein (Sino Biological, Cat #10084-H05H) (human, UniProt Q9NZQ7 19-239); assay: competition ELISA, coated human PD-L1-mFc, competitor human PD-1-His-hFc-Biotin
T1 construct: Bought protein; also called human PD-L1 mouse Fc fusion protein; not shown: mouse Fc
Procedure: Briefly, microplates were precoated with […] of human PD-L1-mFc fusion protein (Sino Biological, Cat #10084-H05H) diluted in 1×PBS (GIBCO) and incubated overnight at 4° C.; Plates were washed four times with 300 μl/well washing buffer (1×PBST, diluted from 20×PBST (Thermo Scientific) with distilled water)) and then blocked with 300 μl/well of blocking buffer (1×PBST/3% BSA) for 2 hours at RT on shaker (100 rpm). […] Plates were washed and added with 100 μl/well TMB substrate for color development at room temperature in dark for up to 10 minutes. After addition of 50 μl/well of stop solution (1N H₂SO₄), plates were read at 450 nm on a plate reader (SpectraMax M5).

[2] = target: T2, human PD-L1 expressed on cell surface (human, UniProt Q9NZQ7 19-290); assay: cell-based or functional assay
T2 sequence (Q9NZQ7 19-290 limits assumed): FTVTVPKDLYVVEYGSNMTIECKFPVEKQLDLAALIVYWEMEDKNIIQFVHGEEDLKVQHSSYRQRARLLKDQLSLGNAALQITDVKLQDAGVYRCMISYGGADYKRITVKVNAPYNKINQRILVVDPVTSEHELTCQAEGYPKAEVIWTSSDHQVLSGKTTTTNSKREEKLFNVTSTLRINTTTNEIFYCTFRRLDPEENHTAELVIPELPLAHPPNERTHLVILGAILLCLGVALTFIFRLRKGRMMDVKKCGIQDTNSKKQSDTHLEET

[3] = target: T2, human PD-L1 expressed on cell surface; assay: flow cytometry, MDA-MB-231-GFP cells
Procedure: Cells were then resuspended in FACS buffer (1×DPBS/1% FBS) at 10⁶/ml concentration. One hundred microliter (100 μl) of cells were aliquoted into a single well in 96 well plates. The antibodies to be tested were serially diluted at 1:3 fold starting at 15 ug/mL and were then added into each well. The antibodies were mixed with cells and the mixtures were incubated on ice for 1 hour. […] After washing with FACS buffer, stained cells were resuspended at diluted […] (Biolegend, Cat #420404, used at 1:100 dilution) and analyzed on Guava 11HT (Luminex). Data was analyzed using Flowjo software.
(§1) Anti-HEL isotype control (Biolntron) was used as negative control.

[4] = target: mouse PD-L1 (Sino Biological, Cat #50010-M08H) (mouse, UniProt Q9EP73 19-238); assay: ELISA
Sequence of mouse PD-L1 (Sino Biological, Cat #50010-M08H) (Q9EP73 19-238 limits assumed, stated change not applied): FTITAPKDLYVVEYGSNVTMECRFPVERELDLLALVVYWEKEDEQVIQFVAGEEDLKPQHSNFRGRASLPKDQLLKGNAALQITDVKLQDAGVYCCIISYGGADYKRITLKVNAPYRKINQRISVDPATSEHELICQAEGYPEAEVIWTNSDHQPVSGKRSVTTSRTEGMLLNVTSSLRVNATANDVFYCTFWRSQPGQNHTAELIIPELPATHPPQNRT

[5] = target: T2, human PD-L1 expressed on cell surface; assay: cell-based or functional assay; remark: listed apart in the source
[6] = target: T3, human PD-L1-His (Sino Biological, Cat #10084-H08H) (human, UniProt Q9NZQ7 19-238); assay: BLI (Gator), antibody on HFC probe, human PD-L1-His in solution
T3 construct: Bought protein; also called human PD-L1 ECD-His; recombinant human PD-L1-His protein; not shown: His tag
T3 sequence (Q9NZQ7 19-238): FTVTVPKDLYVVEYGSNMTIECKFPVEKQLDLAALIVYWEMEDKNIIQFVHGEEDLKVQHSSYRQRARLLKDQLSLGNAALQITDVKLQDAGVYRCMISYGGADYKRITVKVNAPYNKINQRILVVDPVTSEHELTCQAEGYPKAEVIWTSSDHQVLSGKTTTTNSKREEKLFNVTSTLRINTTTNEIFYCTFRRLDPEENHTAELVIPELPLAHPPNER
Procedure: The affinity of the binding of the exemplary anti-PD-L1 antibodies of the present disclosure was determined. Assay was performed according to the protocol recommended by Gator or Gator Plus (Gator Bio Inc.). Briefly, human PD-L1-His (Sino Biological, Cat #10084-H08H) was serially diluted 4-fold, starting at 4 μg/ml. After three times of regeneration in generation buffer (Gator Bio, Cat #120012) and neutralization of HFC probe (Gator Bio, Cat #160003), 1 μg/ml of antibody to be tested in Q buffer (Gator Bio, Cat #120010) was immobilized onto HFC probe. After a baseline step, probe immobilized with antibody was dipped into antigen solutions. The association and dissociation of antigen from antibody was measured on BLI machine Gator. Affinity was calculated using Gator Bio analysis software.
Table 22 below summarizes the binding affinity to human PD-L1 using Gator.

[7] = target: T4, cynomolgus PD-L1-His (Sino Biological, Cat. 90251-C08H) (cynomolgus, UniProt Q9NZQ7 19-238 (human entry)); assay: ELISA, coated cyno PD-L1-His
T4 construct: Bought protein; also called Cyno PD-L1; Cynomolgus PD-L1 ECD-His; not shown: His tag
T4 sequence (Q9NZQ7 other isoform, or with tags, fused parts or gaps C08H C08H limits assumed): as the sequence (Q9NZQ7 19-238) above, with A33T, A34S, S62N, R68Q, Q82R, F173L, T185A, T192I, H215L counted along it
Procedure: Briefly, Maxisorp plates (Nunc) were coated with 100 ul/well of 0.5 μg/ml human PD-L1-His (Sino Biological, Cat #10084-H08H) or cynomolgus PD-L1-His (Sino Biological, Cat. 90251-C08H) protein diluted in 1×PBS (GIBCO) overnight at 4° C. Plates were washed three times with 300 μl/well washing buffer (1×PBST, diluted from 20×PBST (Thermo Scientific) with distilled water)) and then blocked with 300 μl/well of blocking buffer (1×PBST/I % BSA) for 2 hours at RT on shaker (100 rpm). Plates were washed and added with 100 μl/well of testing antibodies, which were serial diluted with assay buffer (PBST/1% BSA). The antibodies were incubated at room temperature for 2 hours on plate shaker at 100 rpm. Plates were washed. One hundred microliter of horseradish peroxidase (HRP) conjugated detection antibody was added into each well and incubated at room temperature for 1 hour on plate shaker at 100 rpm. Plates were washed and added with 100 μl/well TMB substrate for color development at room temperature in dark for up to 10 minutes. After addition of 50 μl/well of stop solution (1N H₂SO₄), plates were read at 450 nm on a plate reader (SpectraMax M5).
as §1

[8] = target: T3, human PD-L1-His (Sino Biological, Cat …); assay: competition ELISA (epitope binning): coated human PD-L1-His, antibody pre-incubated, then biotinylated Avelumab (competitor), detection with HRP-avidin

T1 sequence (Q9NZQ7 19-239 limits assumed): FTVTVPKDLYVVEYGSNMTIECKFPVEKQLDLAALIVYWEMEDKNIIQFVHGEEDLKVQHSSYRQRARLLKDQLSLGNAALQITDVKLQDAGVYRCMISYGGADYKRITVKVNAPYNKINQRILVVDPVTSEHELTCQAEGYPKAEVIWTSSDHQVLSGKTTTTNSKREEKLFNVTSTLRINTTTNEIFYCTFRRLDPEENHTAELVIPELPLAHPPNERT

IC50 [1]: 1500 pM
IC50 (nM), Promega PD-1/PD-L1 blockade reporter assay [2]: 0.24 nM
EC50 [3]: 100 pM
binding result [4]: no binding
IC50 (nM), Promega PD-1/PD-L1 blockade reporter assay, another assay [5]: 0.33 nM
Kd [6]: 90 pM
koff [6]: 7.6e-05 s⁻¹
kon [6]: 810000 M⁻¹ s⁻¹
EC50 [7]: 17.7 pM
B1: 28B3 (antibody, human IgG1, V domains shown)
VH: QSVEESGGRLVTPGTPLTLSCTASGFSLSSYYMIWVRQAPGKGLEYIGYVYTGSGNTWYASWAKGRFAISKASTTVDLMITSPTTEDTATYFCASGADGVYDWGWDIWGPGTLVTVSL
VL: DIVMTQTPASVEAAVGDTVTIKCQASQSIYSLLAWYQQKPGQRPKLLIAGASNLESGVPSRFSGSGSGTEYTLTISALECADAATYYCQNNYDSGRIYGLAFGGGTEVVVK

IC50 [1]: 2100 pM
IC50 (read off the curve) [8]: ~0.1 µg/mL
IC50 (nM), Promega PD-1/PD-L1 blockade reporter assay [2]: 0.36 nM
EC50 [3]: 190 pM
binding result [4]: no binding
Kd [6]: 580 pM
koff [6]: 0.000399 s⁻¹
kon [6]: 686000 M⁻¹ s⁻¹
EC50 [7]: 7.6 pM
B2: 56H3 (antibody, human IgG1, V domains shown)
VH: QEQLVESGGGLVQPEGSLTLTCTASEFSFSNNYYMSWVRQAPGKGLEWLGSIGIGSGITDYASWAKGRFTISKASSTTVTLQMTTLTAADTAIYFCARWTSGGGGFGLWGPGTLVTVSS
VL: QVLTQTSSPVSAAVGGTVTINCQSSQTIYSDYLFWYQQKPGQPPKLLIYQTSTLASGVPSRFSGSGSGTQFTLTISGVQCDDAATYYCQGYYSGYIWTFGGGTEVVVN
